Biological target: OSM-3 H207Q mutant, EGFP tagged (C. elegans) (UniProt P46873)
UniProt P46873, sequence (P46873 whole entry H207Q): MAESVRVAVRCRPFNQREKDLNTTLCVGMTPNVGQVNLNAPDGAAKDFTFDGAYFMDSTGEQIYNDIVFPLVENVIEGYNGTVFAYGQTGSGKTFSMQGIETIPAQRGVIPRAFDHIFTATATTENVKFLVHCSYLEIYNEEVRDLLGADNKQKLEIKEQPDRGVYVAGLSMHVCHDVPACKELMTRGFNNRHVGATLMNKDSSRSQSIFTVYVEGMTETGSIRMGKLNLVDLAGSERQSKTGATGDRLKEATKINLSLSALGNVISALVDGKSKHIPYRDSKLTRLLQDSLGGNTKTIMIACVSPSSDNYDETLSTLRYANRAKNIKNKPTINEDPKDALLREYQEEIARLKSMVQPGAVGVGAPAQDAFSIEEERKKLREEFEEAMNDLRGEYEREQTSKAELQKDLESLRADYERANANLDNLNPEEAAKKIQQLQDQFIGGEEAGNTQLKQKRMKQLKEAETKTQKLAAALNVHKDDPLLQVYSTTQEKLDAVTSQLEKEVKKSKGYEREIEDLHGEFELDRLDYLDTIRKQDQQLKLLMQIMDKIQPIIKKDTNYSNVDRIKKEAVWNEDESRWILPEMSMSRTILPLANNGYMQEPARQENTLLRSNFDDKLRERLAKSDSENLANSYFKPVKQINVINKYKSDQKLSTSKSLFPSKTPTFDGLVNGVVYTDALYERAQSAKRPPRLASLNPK

microtubule-stimulated ATPase activity relative to wild-type OSM-3 (set to 100%): 18%
Substance: microtubules (complex)
